Ends that are not written are not given here.
Experiment: Dynamic light scattering
Type: physicochemical
Details: phosphate buffer pH 7.4, 25° C.
Procedure: One set was prepared at 1.0 mg/ml, the second set was prepared at 0.10 mg/ml, and stored at room temperature. Peptides were dissolved by vortexing for 1 min, and centrifuged in a microcentrifuge for 5 min at 14,000 rpm, at room temperature. For Aβ42 samples (MSD), vials containing 0.1 mg peptide were suspended in 1.0 ml buffer, and treated as above. A volume (200 μl) of each centrifuged 1.0 mg/ml stock was transferred to a 0.5 ml polypropylene tube, and provided for NMR analysis.
The absorbance spectra of all samples were recorded (220-750 nm) using a NANODROP® ND-1000 instrument, and blanked against the buffer. Dynamic light scattering analysis was conducted on the peptides in a 384 well polystyrene plate (CORNING®, type 3540) with a Wyatt DLS DynaPro plate reader. Data collection and analysis was completed using software from the manufacturer (DYNAMICS, versions 7.0.0.94 and 7.0.1.12). Each peptide was evaluated in triplicate with 30 μl loaded per well, and overlaid with 5 μl mineral oil, to minimize evaporation. Buffer blanks were also included in the analysis for comparison. After loading the plate, a transparent adhesive sealing tape cover was applied to the plate and the plate was centrifuged for 2 min at 1000 rpm. Each sample on the plate was read 30 times, 5 sec per acquisition, maintaining a temperature of 25° C. Data sets were collected on both the 1.0 mg/ml and 0.10 mg/ml samples over the course of 27 days. The adhesive cover was removed to read the samples in the plate reader, and used to cover the plate between readings over the 27 day time course.
FIGS. 7A through 7F show dynamic light scattering data. In FIGS. 7A-F, the full length Aβ42 peptide was subjected to DLS analysis and compared to four representative modified peptides. […] FIG. 7a represents the raw data accumulated for all five peptides. Shown is the intensity autocorrelation versus time. […] FIGS. 7b-7f depict the percent mass versus the radius of the peptides. Monomeric peptides would be represented by a larger percent mass at the smaller radius size.

Sequence: DAEFRHDSGYEVHHQKEERPIGLMVGGVVIA (not fully specified) [GS#4, native Aβ42 amino acids (1-16)-EERP-native Aβ42 amino acids (32-42)]
- % Intensity (DLS Peak 1): 3.8%
- % Mass (DLS Peak 1): 97.7%
- % Pd (DLS Peak 1): 3.2%
- Mw-R (DLS Peak 1): 6.0 kDa
- Radius (DLS Peak 1): 1.3 nm
- % Intensity (DLS Peak 2): 0.6%
- % Mass (DLS Peak 2): 0.2%
- % Pd (DLS Peak 2): 0.0%
- Mw-R (DLS Peak 2): 225.0 kDa
- Radius (DLS Peak 2): 6.0 nm
- % Intensity (DLS Peak 3): 5.2%
- % Mass (DLS Peak 3): 0.0%
- % Pd (DLS Peak 3): 4.5%
- Mw-R (DLS Peak 3): 7527.0 kDa
- Radius (DLS Peak 3): 27.0 nm
- % Intensity (DLS Peak 4): 25.1%
- % Mass (DLS Peak 4): 0.2%
- % Pd (DLS Peak 4): 4.3%
- Mw-R (DLS Peak 4): 283287.0 kDa
- Radius (DLS Peak 4): 127.0 nm
